{"source": "paper PMC3293257", "target": "FBF-1/CSR-1 heterodimer (GST-FBF-1 with His6-CSR-1(MID-PIWI)) (C. elegans) (UniProt Q9N5M6)", "experiment": "pull-down"}
{"substance": "Recombinant EFT-3 (natural protein)", "values": [{"measurement": "stoichiometry N", "result": 1}]}
